This note sets out measurements from publication PMC11988454, “Discovery of synthetic small molecules targeting the central regulator of Salmonella pathogenicity” (Science Advances, 2025).

For series [1], the target named is T1, HilD (Salmonella typhimurium, UniProt E1WAC0).
T1 construct: endogenous in cells; host or cells: S. Typhimurium SL1344 strain PhilA-sfGFP
Kind of series: Whole-cell HilD activity assay (PhilA-sfGFP activation). The series is classed as cell-based, S. Typhimurium. How it is done: A whole-cell reporter gene assay was used to quantify HilD transcriptional activity. Strain PhilA-sfGFP and the isogenic ΔhilD PhilA-sfGFP were used for this purpose. Cultures were performed in 1 ml of LB supplemented with 0.3 M NaCl. Compounds at different concentrations or 1% (v/v) DMSO were added to the corresponding tubes. Cultures were incubated at 37°C and 180 rpm for 5 hours. Cells were pelleted, resuspended in 100 μl of PBS, and then transferred into a 96-well black clear-bottom plate (Thermo Fisher Scientific, USA). Fluorescence intensity was measured with a Tecan Spark microplate reader with an excitation wavelength of 485 nm and an emission wavelength of 510 nm. Dose-response curves and IC50 values were calculated using CDD Vault.

The next series addresses T2, HilD dimer (Salmonella typhimurium, UniProt P0CL08).
T2 construct: His6-SUMO (N, cleaved yes); made in house; host or cells: E. coli C41(DE3)
Kind of series: BS3 cross-linking of HilD. The series is classed as biochemical, S. Typhimurium. The conditions noted are these: oleic acid 50 and 100 μM; C26 up to 200 μM. How it is done:
BS^3 cross-linking of HilD was performed as previously described ([39]). In summary, HilD (10 μM) was first incubated with C26 or oleic acid in SEC buffer for 20 min at r.t., with a final DMSO concentration of 1% (v/v). HilD was then cross-linked by incubation with 0.2 mM BS^3 (Thermo Fisher Scientific, Pierce, A39266) at r.t. for 1 hour, before the reaction was quenched by the addition of 50 mM Tris (pH 7.5). Samples were analyzed using SDS-PAGE and visualized by silver staining.

The target of the next series is HilD-HilE heterodimer (Salmonella typhimurium, UniProt P0CL08). Kind of series: MST dimerization assay HilD-HilE. The series is classed as binding, S. Typhimurium. Conditions: 100 μM compound. The method, then: MST measurements for the binding of HilD to HilE were performed as previously described ([39]). In summary, enhanced yellow fluorescent protein (EYFP)-HilD (100 nM) was incubated with 100 μM either oleic acid or C26 [with a final concentration of 1% (v/v) DMSO] for 10 min at r.t. (22° to 25°C) and subsequently mixed 1:1 with varying concentrations of HilE. Samples were incubated together for 10 min at r.t., centrifuged for 5 min, and loaded to standard capillaries (NanoTemper Technologies GmbH, no. MO-K022). MST runs were performed at 25°C on a NanoTemper Monolith NT.115, with an excitation power of 60% and medium MST power. Data were analyzed using the MO.Affinity Analysis v2.3 software, and affinity constants were calculated using the Kd model.

The series “SEC-MALS” concerns the molecule itself. The series is described as follows: SEC-MALS. In general terms: In gel filtration, larger molecules generally elute earlier.
The target in series [2] is T3, HilE (Salmonella enterica subsp. enterica …).
T3 chain: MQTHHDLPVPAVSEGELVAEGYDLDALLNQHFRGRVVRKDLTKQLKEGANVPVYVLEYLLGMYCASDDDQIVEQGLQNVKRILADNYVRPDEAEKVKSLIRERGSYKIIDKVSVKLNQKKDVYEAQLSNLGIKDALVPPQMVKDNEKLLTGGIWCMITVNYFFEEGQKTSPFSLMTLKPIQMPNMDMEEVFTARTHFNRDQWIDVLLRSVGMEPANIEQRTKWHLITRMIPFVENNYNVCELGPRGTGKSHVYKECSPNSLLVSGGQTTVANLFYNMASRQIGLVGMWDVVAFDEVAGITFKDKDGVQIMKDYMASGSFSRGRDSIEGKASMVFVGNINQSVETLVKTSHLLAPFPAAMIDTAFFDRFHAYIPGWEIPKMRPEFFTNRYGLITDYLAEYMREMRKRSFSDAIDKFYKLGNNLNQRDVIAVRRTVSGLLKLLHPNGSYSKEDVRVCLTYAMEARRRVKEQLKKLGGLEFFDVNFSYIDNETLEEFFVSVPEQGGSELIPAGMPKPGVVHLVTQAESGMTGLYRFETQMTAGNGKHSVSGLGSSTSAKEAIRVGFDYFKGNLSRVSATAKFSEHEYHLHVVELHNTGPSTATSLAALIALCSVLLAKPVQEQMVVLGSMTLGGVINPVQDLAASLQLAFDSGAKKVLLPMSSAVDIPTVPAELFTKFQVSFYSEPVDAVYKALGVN
The series is described as follows: MST; 1% DMSO.

Series [3] deals with T3, HilE. The series is described as follows: MST; 100 uM C26.
Series [4] has as its target T4, HilD (Salmonella enterica serovar Typhimurium, UniProt P0CL08 1-309).
T4 sequence: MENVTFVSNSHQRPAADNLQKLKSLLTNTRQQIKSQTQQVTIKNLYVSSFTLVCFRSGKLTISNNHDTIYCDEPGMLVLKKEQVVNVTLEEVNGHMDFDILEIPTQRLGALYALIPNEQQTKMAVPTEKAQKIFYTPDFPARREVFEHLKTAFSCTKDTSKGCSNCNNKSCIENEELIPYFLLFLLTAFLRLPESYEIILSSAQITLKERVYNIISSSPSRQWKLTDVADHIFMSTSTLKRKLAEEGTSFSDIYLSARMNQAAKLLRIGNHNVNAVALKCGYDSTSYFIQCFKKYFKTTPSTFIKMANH
The series is described as follows: EMSA; no C26. The conditions noted are these: protein: recombinant; tags: His6-SUMO removed by SUMO protease; chain copies: 2; label: 5'-Cy5 on strand 1; blunt.

The target in the next series is T5, HilC (Salmonella enterica serovar Typhimurium, UniProt E1WAB2 1-295).
T5 sequence: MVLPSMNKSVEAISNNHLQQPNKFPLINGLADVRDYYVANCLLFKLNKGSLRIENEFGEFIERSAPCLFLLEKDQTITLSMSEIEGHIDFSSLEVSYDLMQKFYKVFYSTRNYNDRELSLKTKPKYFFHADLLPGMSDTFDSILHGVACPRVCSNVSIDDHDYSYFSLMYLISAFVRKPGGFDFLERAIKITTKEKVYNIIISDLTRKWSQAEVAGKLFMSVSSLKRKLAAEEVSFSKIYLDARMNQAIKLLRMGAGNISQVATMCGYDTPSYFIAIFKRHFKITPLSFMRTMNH
Kind of series: EMSA; no C26. The conditions noted are these: protein: recombinant; tags: N-terminal His6-TEV, cleaved by TEV protease; chain copies: 2; label: 5'-Cy5 on strand 1; blunt.

A further series concerns the target HilD Y46A (Salmonella enterica serovar Typhimurium, UniProt P0CL08 1-309, Y46A). Kind of series: EMSA; no C26; affinity comparable to WT. The conditions noted are these: protein: recombinant; tags: His6-SUMO removed by SUMO protease; chain copies: 2; label: 5'-Cy5 on strand 1; blunt. A general note: Mobility shift assays separate free from complexed probe on a gel.

For a further series, the target named is HilD L45A (Salmonella enterica serovar Typhimurium, UniProt P0CL08 1-309, L45A). Kind of series: EMSA; no C26; affinity comparable to WT. The conditions noted are these: protein: recombinant; tags: His6-SUMO removed by SUMO protease; chain copies: 2; label: 5'-Cy5 on strand 1; blunt.
The next series has as its target HilD I100A (Salmonella enterica serovar Typhimurium, UniProt P0CL08 1-309, I100A). Kind of series: EMSA; no C26; affinity comparable to WT. Conditions: protein: recombinant; tags: His6-SUMO removed by SUMO protease; chain copies: 2; label: 5'-Cy5 on strand 1; blunt.
The target of another series is HilD Y212A (Salmonella enterica serovar Typhimurium, UniProt P0CL08 1-309, Y212A). The series is described as follows: EMSA; no C26; affinity comparable to WT. Conditions: protein: recombinant; tags: His6-SUMO removed by SUMO protease; chain copies: 2; label: 5'-Cy5 on strand 1; blunt.

Turning to `CCCCCCCC/C=C\CCCCCCCC(=O)O` [oleic acid, reference compound], the IC50 (commonly the concentration needed to halve the response being measured) on HilD [1] turned out to be 25100 nM. Moreover, the “levels of cross-linked HilD dimer” value at HilD dimer is “Decreased levels of the cross-linked HilD dimer”. The “formation of HilD-HilE heterodimers” value at HilD-HilE heterodimer is given as “disrupted the binding of HilE to HilD”.

B1: HilD (natural protein)
chain: T4 sequence
notes: also called HilDWT; recombinant HilD; source: E. coli C41(DE3), purified (Ni-NTA, SUMO protease cleavage, second Ni-NTA, SEC)
Turning to B1, in “SEC-MALS”, the stoichiometry N (commonly the number of molecules, sites or subunits per partner or assembly) worked out at 2. The dissociation constant Kd – broadly, the equilibrium constant for the complex coming apart – in the series with HilE [2] was found to be 1700 nM; with HilE [3] it was 1710 nM.

B2: PhilA A1 62 bp (dsDNA)
DNA 1: GGGAGTAAAGAAAAGACGATATCATTATTTTGCAAAAAAATATAAAAATAAGCGCACCATTA
DNA 2: TAATGGTGCGCTTATTTTTATATTTTTTTGCAAAATAATGATATCGTCTTTTCTTTACTCCC
In the case of B2, the binding result in the series with HilD [4], with HilC, with HilD Y46A, with HilD L45A, with HilD I100A and with HilD Y212A was “binds” throughout.
